Experimental data from the supplement of paper PMC9732359.
± gives the uncertainty stated by the source.

Experiment: protein stability index of a GFP-peptide fusion (yeast GPS) (PSI 1-4); higher = more stable; sorted into four equal gates, so the index is relative within each strain
Summary of the method: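 For each peptide, the protein stability index sums the read frequency in every gate after multiplying it by the gate number. Read frequencies came from plasmids that were PCR-amplified from each gate and Illumina-sequenced, with reads assigned to strains by barcodes. The gates were four equal bins of GFP/Cherry fluorescence ratio applied to mid-log yeast in leucine-free medium carrying a pooled library of tiled 17-residue yeast protein peptides fused downstream of GFP on a Cherry-expressing plasmid.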

Sequence	protein stability index (pdr5∆)	protein stability index (san1∆)	protein stability index (ubr1∆)	protein stability index (doa10∆)
DTETFDTVNSALENDVA [YML103C/NUP188]	3.63 ± 0.23	3.16 ± 0.2	2.69 ± 0.17	
QTKEIKTERVEDQKVVD [RPL6B]	3.33 ± 0.11	3.48 ± 0.068	3.53 ± 0.076	3.55 ± 0.088
VEDGNILVFQVSMKANK [RPL25]	2.46 ± 0.047	2.5 ± 0.047	2.69 ± 0.037	2.58 ± 0.043
KRINFEKIKDIHNTKLP [POP1]	3.06 ± 0.13	2.87 ± 0.28	2.54 ± 0.076	2.42 ± 0.17
TPSNIRSLCEVLVYDDK [RPC34]	1.84 ± 0.078	1.26 ± 0.11	1.59 ± 0.086	1.7 ± 0.077
DGGKTLRACAANVDQIS [YMR129W/POM152]	2.94 ± 0.11	2.94 ± 0.13	2.37 ± 0.11	2.15 ± 0.13
MINGRKLIKFETRNEDD [FAS1]	2.81 ± 0.068	3.07 ± 0.047	2.81 ± 0.044	2.9 ± 0.071
YCSGNIYDFHKMENLMR [YJL039C/NUP192]	2.79 ± 0.059	2.52 ± 0.05	2.73 ± 0.052	2.77 ± 0.068
WDLLPEPIRFLPNQFPL [SWI1]	2.58 ± 0.071	2.26 ± 0.054	2.31 ± 0.069	2.54 ± 0.059
MSAKAEKKPASKAPAEK [HTB1]	3.41 ± 0.12	3.16 ± 0.12	2.89 ± 0.098	3.51 ± 0.13
GLFGNKPALGSLGSSST [YGR119C/NUP57]	2.63 ± 0.084	2.77 ± 0.048	3.21 ± 0.18	3.34 ± 0.089
KLDQDDEIYIPINGNEA [CSI1]	3.46 ± 0.091	3.19 ± 0.09	3.45 ± 0.072	3.24 ± 0.15
YQKNKPYPKSRYNRAVP [RPL10]	3.06 ± 0.045	3.06 ± 0.04	2.85 ± 0.038	2.91 ± 0.045
VANQTSATFLRIVGSEL [RPT2]	2.29 ± 0.096	2.15 ± 0.15	2.13 ± 0.082	2.45 ± 0.12
IPNRRFTLWWSPTINRA [PRP8]	2.28 ± 0.065	1.65 ± 0.052	2.29 ± 0.047	2.65 ± 0.069
SVSFKVFLLLQAYFSRL [BRR2]	1.47 ± 0.063	1.22 ± 0.088	1.42 ± 0.051	1.39 ± 0.044
DIAFVLNNLPYKNEDVT [YCS4]	3.08 ± 0.051	2.94 ± 0.037	3 ± 0.065	2.61 ± 0.053
VTIIPLDKIYTRPISSQ [SMC2]	1.55 ± 0.084	1.64 ± 0.082	1.25 ± 0.045	1.66 ± 0.067
